Source: paper PMC8246641
Ends that are not written are not given here.

Biological target: taxol-stabilized microtubules (MTs) (UniProt P02550)
Assay: co-sedimentation

B1: GST-ABS6^329–387 (DUF4005 domain of ABS6/AtIQD16, N-terminal GST tag) (domain or fragment)
chain: {GST}-RSASPRIPCSPSSMQPNYMSATESAKAKARTQSTPRRRPMTAKKRLCYAEEESLRSPSF
modifications: cysteine pairing not given here
  Kd: 996 nM
